# In the supplement of paper PMC9112550, “Optimization of the antimicrobial peptide Bac7 by deep mutational scanning” (BMC Biology, 2022):
# System: Escherichia coli TOP10
# Assay: shrunken log2 fold change of peptide-encoding DNA abundance (4.5 h post-induction vs induction); higher = less antimicrobial activity (less host growth inhibition)
# Conditions: time post-induction: 4.5 h; library: site-saturation at positions 5, 18, 19, 20
# 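Further: peptides expressed intracellularly from a pBAD plasmid library in pooled LB shake-flask culture, induced with 0.3% L-arabinose, DNA abundance read by NGS, three biological replicates, DESeq2 with apeglm shrinkage.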
row,Sequence,shrunken log2 fold change
1,RRIRHRPPRLPRPRPRPMGWPRP,0.317
2,RRIRQRPPRLPRPRPRPQIDPRP,-0.0357
3,RRIRPRPPRLPRPRPRPFWFPRP,-0.0717
4,RRIRCRPPRLPRPRPRPMHPPRP,-0.00769
5,RRIRVRPPRLPRPRPRPPDQPRP,0.124
6,RRIRPRPPRLPRPRPRPHITPRP,-0.759
7,RRIRNRPPRLPRPRPRPISEPRP,0.00895
8,RRIRKRPPRLPRPRPRPLLLPRP,-0.105
9,RRIRERPPRLPRPRPRPLGTPRP,-0.0681
10,RRIRLRPPRLPRPRPRPRASPRP,0.516
11,RRIRHRPPRLPRPRPRPYTKPRP,0.0561
12,RRIRQRPPRLPRPRPRPMQHPRP,-0.165
13,RRIRWRPPRLPRPRPRPGSIPRP,-0.0682
14,RRIRWRPPRLPRPRPRPATMPRP,0.0187
15,RRIRPRPPRLPRPRPRPCREPRP,-0.075
16,RRIRHRPPRLPRPRPRPKPQPRP,0.269
17,RRIRARPPRLPRPRPRPQILPRP,-0.0605
18,RRIRPRPPRLPRPRPRPPGMPRP,0.501
19,RRIRQRPPRLPRPRPRPYNIPRP,-0.395
20,RRIRTRPPRLPRPRPRPFIVPRP,-0.265
21,RRIRGRPPRLPRPRPRPLETPRP,0.985
22,RRIRMRPPRLPRPRPRPWMQPRP,2.38
23,RRIRFRPPRLPRPRPRPPMCPRP,-0.0102

row,Sequence,shrunken log2 fold change
1,RRIRARPPRLPRPRPRPKGAPRP,0.514
2,RRIRARPPRLPRPRPRPQMWPRP,0.102
3,RRIRGRPPRLPRPRPRPTSFPRP,0.449
4,RRIRPRPPRLPRPRPRPEWRPRP,0.362
5,RRIRPRPPRLPRPRPRPVFHPRP,-0.178
6,RRIRCRPPRLPRPRPRPDHYPRP,-0.211
7,RRIRTRPPRLPRPRPRPETFPRP,-0.4
8,RRIRARPPRLPRPRPRPSINPRP,-0.308
9,RRIRFRPPRLPRPRPRPILDPRP,-0.0134
10,RRIRDRPPRLPRPRPRPRKDPRP,-0.108
11,RRIRGRPPRLPRPRPRPRRQPRP,0.85
12,RRIRGRPPRLPRPRPRPLYVPRP,0.0628
13,RRIRMRPPRLPRPRPRPEVDPRP,0.784
14,RRIRKRPPRLPRPRPRPNTSPRP,0.0472
15,RRIRKRPPRLPRPRPRPPNMPRP,0.0839
16,RRIRPRPPRLPRPRPRPPHGPRP,0.374
17,RRIRMRPPRLPRPRPRPETFPRP,0.211
18,RRIRARPPRLPRPRPRPMASPRP,0.543
19,RRIRMRPPRLPRPRPRPCGHPRP,0.0237
20,RRIRSRPPRLPRPRPRPIYAPRP,0.0432
21,RRIRRRPPRLPRPRPRPALSPRP,0.528
22,RRIRYRPPRLPRPRPRPGEDPRP,-0.00904
23,RRIRLRPPRLPRPRPRPMKNPRP,-0.303

row,Sequence,shrunken log2 fold change
1,RRIRVRPPRLPRPRPRPVMYPRP,-0.251
2,RRIRVRPPRLPRPRPRPEMNPRP,-0.16
3,RRIRPRPPRLPRPRPRPMYRPRP,-0.752
4,RRIRERPPRLPRPRPRPAKSPRP,0.0676
5,RRIRMRPPRLPRPRPRPDHTPRP,0.329
6,RRIRERPPRLPRPRPRPGVKPRP,-0.0766
7,RRIRQRPPRLPRPRPRPRRVPRP,0.252
8,RRIRLRPPRLPRPRPRPHGTPRP,0.0824
9,RRIRKRPPRLPRPRPRPPGHPRP,0.377
10,RRIRRRPPRLPRPRPRPMQPPRP,0.0874
11,RRIRARPPRLPRPRPRPEYRPRP,0.0382
12,RRIRDRPPRLPRPRPRPALRPRP,0.0869
13,RRIRERPPRLPRPRPRPDPYPRP,-0.0291
14,RRIRLRPPRLPRPRPRPHVTPRP,-0.198
15,RRIRFRPPRLPRPRPRPSWRPRP,0.167
16,RRIRRRPPRLPRPRPRPEARPRP,0.172
17,RRIRGRPPRLPRPRPRPTMIPRP,0.0786
18,RRIRGRPPRLPRPRPRPTIQPRP,0.54
19,RRIRLRPPRLPRPRPRPVLEPRP,-0.335
20,RRIRERPPRLPRPRPRPTQDPRP,0.217
21,RRIRLRPPRLPRPRPRPINPPRP,0.132
22,RRIRQRPPRLPRPRPRPFFFPRP,0.0337
23,RRIRYRPPRLPRPRPRPKSEPRP,-0.0489

row,Sequence,shrunken log2 fold change
1,RRIRVRPPRLPRPRPRPMLPPRP,0.0351
2,RRIRHRPPRLPRPRPRPCMLPRP,-0.151
3,RRIRRRPPRLPRPRPRPHFLPRP,-0.196
4,RRIRRRPPRLPRPRPRPNGLPRP,0.0125
5,RRIRARPPRLPRPRPRPNLLPRP,0.00335
6,RRIRARPPRLPRPRPRPFYSPRP,-0.0849
7,RRIRQRPPRLPRPRPRPPLWPRP,0.494
8,RRIRWRPPRLPRPRPRPMMFPRP,-0.117
9,RRIRLRPPRLPRPRPRPEEPPRP,0.0426
10,RRIRRRPPRLPRPRPRPQNNPRP,0.198
11,RRIRSRPPRLPRPRPRPDFVPRP,-0.106
12,RRIRNRPPRLPRPRPRPAIIPRP,0.154
13,RRIRARPPRLPRPRPRPEVMPRP,0.28
14,RRIRERPPRLPRPRPRPEREPRP,0.414
15,RRIRPRPPRLPRPRPRPGCHPRP,0.332
16,RRIRPRPPRLPRPRPRPRCEPRP,0.809
17,RRIRFRPPRLPRPRPRPEFKPRP,-0.0568
18,RRIRIRPPRLPRPRPRPNTVPRP,-1.09
19,RRIRFRPPRLPRPRPRPMNNPRP,-0.501
20,RRIRHRPPRLPRPRPRPHTDPRP,-0.212
21,RRIRQRPPRLPRPRPRPELAPRP,0.577
22,RRIRMRPPRLPRPRPRPDKHPRP,0.253
